# From US20210139907, “MATERIALS AND METHODS FOR THE DELIVERY OF THERAPEUTIC NUCLEIC ACIDS TO TISSUES” (UNIVERSITY OF MIAMI, published 2021)
# B1: 1-717 (ssRNA)
# RNA: GGAGGACGAUGCGGUAAUUCUCAGGAGGUGCGGAACGGGAUAUGGAUUGUUCGCCAGACGACUCGCUGAGGAUCCGAGA
# modifications: 2'-F pyrimidines (2'-F-dCTP, 2'-F-dUTP in selection transcription)
# Molecular target: TMED6 (Homo sapiens, UniProt Q8WW62 Q8WW62:22-240)
# Assay: competition; recombinant TMED6 (aptamer/protein molar ratio 1/1-1/10) dose-dependently inhibits aptamer staining of human pancreas sections
# Details: tags: HuProt v2.0 protein array (Arrayit); label: Cy3
# Procedure: To identify the target of aptamer 1-717, protein arrays (HuProt™v2.0, Arrayit) were used. These protein arrays contains more than 19,000 human recombinant proteins allowing, by informatics analysis, the identification of the cognate protein of antibodies, peptides, or protein. This technology has been adapted for the identification of aptamer's ligands. Briefly, pre-blocked arrays were hybridized with 1 μg of cy3 labeled 1-717 or m12-3773 in blocking buffer for 30′ at RT. Arrays were washed, read in triplicate on a Genepix microarray reader and analyzed by an ad hoc generated software. This software 1) acquires the data from the gpr file, 2) adds a description column with (GeneID, Control, blank, ND), 2) use a optimized “plotArray” function modified in several points (the script was implemented for a specific protein array, plus some problem in UTF file format), 3) performs a quality control that includes a microarray image rebuilding the generation of MA plots, 4) normalized the data and substracts the background; and 5) analyze the differential expression between arrays via graphs of p-value distribution, volcano plot, and analysis of significant modulation by t-test. This analysis proposed TMED6 (NM144676.1, protein id Q8WW62) as the most likely ligand of aptamer 1-717. […] Images were acquired by a fluorescence microscope and aptamer binding quantified by cellprofiler.
# Chain of TMED6 (Q8WW62 22-240, one chain of several): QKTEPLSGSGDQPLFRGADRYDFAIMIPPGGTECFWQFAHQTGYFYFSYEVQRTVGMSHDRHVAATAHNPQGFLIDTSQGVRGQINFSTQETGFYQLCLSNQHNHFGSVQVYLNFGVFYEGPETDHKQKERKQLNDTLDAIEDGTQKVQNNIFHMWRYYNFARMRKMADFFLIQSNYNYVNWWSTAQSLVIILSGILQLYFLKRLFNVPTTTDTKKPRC
binder,measurement,value
B1,binding result,binds
